Laboratory results: the supplement of paper PMC9732359
± gives the uncertainty stated by the source.

Assay: protein stability index of a GFP-peptide fusion (yeast GPS) (PSI 1-4); higher = more stable; sorted into four equal gates, so the index is relative within each strain
Method in brief: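 Plasmids isolated from each sorting gate were PCR-amplified and Illumina-sequenced, and barcodes assigned the reads to strains. The gates, four of equal size, were set by GFP/Cherry fluorescence ratio on mid-log cultures in leucine-free medium. These cultures were yeast carrying a pooled library of tiled 17-residue yeast protein peptides fused downstream of GFP on a plasmid that also expresses Cherry. The protein stability index is the sum of every gate's read frequency times its gate number.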

| Sequence | protein stability index (doa10∆) | protein stability index (pdr5∆) | protein stability index (san1∆) | protein stability index (ubr1∆) |
| --- | --- | --- | --- | --- |
| KARNGLDYVRTPAAATS [SNF2] | 2.4 ± 0.059 | 2.44 ± 0.072 | 2.12 ± 0.08 | 2.35 ± 0.049 |
| ILLQHKEKLTVQDCRYS [POP1] | 2.53 ± 0.054 | 2.45 ± 0.049 | 2.31 ± 0.05 | 2.42 ± 0.03 |
| NFILEVFGTIIPKISDY [YJL039C/NUP192] | 2.05 ± 0.17 | 1.68 ± 0.22 | – | 1.61 ± 0.26 |
| LIQEHDSRKNREQSSND [BRN1] | 3.38 ± 0.078 | 3.38 ± 0.06 | 3.19 ± 0.081 | 3.45 ± 0.094 |
| MTVKLESITYQKIMILQ [RGR1] | 2.16 ± 0.071 | 1.73 ± 0.068 | 1.6 ± 0.095 | 2.56 ± 0.076 |
| ELKINLPLTEHKSPNLS [SRB4] | 2.93 ± 0.077 | 3.17 ± 0.051 | 2.87 ± 0.041 | 2.98 ± 0.058 |
| FHNAVFNSFRRFKSQFL [QCR8] | 2.31 ± 0.068 | 1.52 ± 0.046 | 1.6 ± 0.088 | 1.54 ± 0.046 |
| CVYVPNFNASLQLTTNT [SNM1] | 2.06 ± 0.038 | 2.71 ± 0.047 | 2.52 ± 0.047 | 2.02 ± 0.065 |
| KERNSLKKLKAMNDACY [BRR2] | 3.18 ± 0.086 | 3.16 ± 0.059 | 2.98 ± 0.051 | 3.05 ± 0.06 |
| SKKISNTAAALVSLLDE [YAR002W/NUP60] | 2.9 ± 0.095 | 2.67 ± 0.086 | 2.92 ± 0.052 | 2.78 ± 0.07 |
| KDYSQILKEEFPKIDSL [RPN5] | – | 2.35 ± 0.24 | – | – |
| KIPDTYTANTSAQSIAS [YAR002W/NUP60] | 1.99 ± 0.049 | 2.13 ± 0.056 | 2.07 ± 0.059 | 2.56 ± 0.034 |
| KGVYLILSEILCQINKC [YML103C/NUP188] | 1.86 ± 0.055 | 1.56 ± 0.047 | 2.23 ± 0.075 | 1.88 ± 0.032 |
| RLQAKRLKDVEWVKLHR [RMP1] | 2.97 ± 0.069 | 3.09 ± 0.076 | 3.15 ± 0.056 | 2.03 ± 0.062 |
| LHVVITLLREVVFTRLV [CSN12] | 1.26 ± 0.052 | 1.26 ± 0.047 | 1.14 ± 0.14 | 1.37 ± 0.083 |
| TYSTPKRPYESSRLDAE [RPS9A] | 2.97 ± 0.073 | 3.02 ± 0.062 | 2.93 ± 0.082 | 2.87 ± 0.064 |
| NIDSLKFNELVKLMKNI [BRR2] | 1.37 ± 0.04 | 1.63 ± 0.067 | 1.5 ± 0.11 | 1.8 ± 0.052 |
| LSKVFSDVLFEFTKINT [YJL039C/NUP192] | 2.87 ± 0.11 | 2.5 ± 0.068 | 2.09 ± 0.13 | 2.94 ± 0.051 |
| EINAVFNELCDPESRTQ [POP1] | 2.91 ± 0.079 | 3.01 ± 0.069 | 2.75 ± 0.092 | 2.93 ± 0.064 |
| PKLKRIGLVKCTQMTDE [GRR1] | 2.95 ± 0.073 | 2.89 ± 0.076 | 2.81 ± 0.057 | 2.86 ± 0.047 |
| AVKNKYNVGKQLSNEII [PRP28] | 2.08 ± 0.066 | 2.52 ± 0.074 | 2.17 ± 0.088 | 2.3 ± 0.069 |
| IEGVVILKKNPDYREEE [RPN1] | 3.06 ± 0.08 | 3.09 ± 0.09 | 3.1 ± 0.075 | 3.1 ± 0.062 |
| LNKFKKAIFQFVCRGMA [ECM29] | 2.06 ± 0.1 | 2.08 ± 0.071 | 2.6 ± 0.11 | 1.92 ± 0.052 |
| VQNSTLAQLTSKLIPEV [RPS1B] | 2.19 ± 0.084 | 2.73 ± 0.062 | 2.27 ± 0.12 | 2.55 ± 0.047 |
| GIEYNRVTNTTSTDFPG [RPC40] | 3.33 ± 0.22 | 3.33 ± 0.14 | 2.73 ± 0.082 | 2.94 ± 0.096 |
| LNKSDLLDKYGKTGLSN [YML103C/NUP188] | 3.38 ± 0.12 | 3.17 ± 0.13 | 3.44 ± 0.058 | 3.38 ± 0.075 |
| DDLERLKKIRAHRGIRH [RPS18A] | 1.47 ± 0.18 | 1.31 ± 0.1 | 1.21 ± 0.18 | 1.31 ± 0.18 |

| Sequence | protein stability index (doa10∆) | protein stability index (pdr5∆) | protein stability index (san1∆) | protein stability index (ubr1∆) |
| --- | --- | --- | --- | --- |
| QVILPMSPNHGTFGGDG [FAS2] | 3.12 ± 0.064 | 3.1 ± 0.057 | 3.18 ± 0.061 | 3.07 ± 0.048 |
| CGFWQPAWRVWLNFLRG [PRP8] | 2.52 ± 0.072 | 2.87 ± 0.12 | 1.62 ± 0.13 | 2.35 ± 0.062 |
| QYQLLYNLKNDILTNLE [SWI1] | 1.81 ± 0.033 | 1.89 ± 0.037 | 1.74 ± 0.077 | 1.65 ± 0.031 |
| EKQTPNKKDKKKEEEEQ [RPN1] | 3 ± 0.059 | 2.98 ± 0.092 | 3.01 ± 0.042 | 3.16 ± 0.058 |
| VLEFCKDYEAKTKAMSL [POP1] | 3.06 ± 0.045 | 2.67 ± 0.043 | 2.73 ± 0.037 | 3.06 ± 0.031 |
| LKLCLGDHSSVPVALKG [YMR129W/POM152] | 2.79 ± 0.086 | 2.91 ± 0.06 | 2.74 ± 0.1 | 3 ± 0.048 |
| GLLDESPNRLRVRTDDS [YML031W/NDC1] | 1.5 ± 0.098 | 1.82 ± 0.15 | 1.67 ± 0.12 | 1.64 ± 0.051 |
| IDEDIGNNVQENELVIT [RMP1] | 3.28 ± 0.17 | – | – | 3.39 ± 0.16 |
| DQDSAVVSSNIKKIVAD [QCR2] | – | – | – | 3.14 ± 0.14 |
| KRLSAALSKFLTHPKYL [YML103C/NUP188] | 2.48 ± 0.072 | 2.25 ± 0.066 | 2.84 ± 0.07 | 2.91 ± 0.065 |
| FTNGVLAVTNLLIISCI [YML031W/NDC1] | 1.89 ± 0.18 | 1.85 ± 0.17 | 1.79 ± 0.14 | – |
| SNHNNLNLNNSELQPQN [SNF2] | 3.02 ± 0.044 | 2.7 ± 0.062 | 2.97 ± 0.051 | 2.81 ± 0.056 |
| QNSKFLKVNVTLDNPLL [YJL039C/NUP192] | 2.72 ± 0.088 | 2.57 ± 0.083 | 2.91 ± 0.058 | 2.36 ± 0.044 |
| VKIVDKDGIRQVDDFQA [PRE1] | 2.86 ± 0.14 | 2.9 ± 0.11 | – | – |
| EGDELENKTKKDNDKNL [SRB4] | 3.33 ± 0.078 | 3.2 ± 0.077 | 3.23 ± 0.055 | 3.27 ± 0.077 |
| SLVIIILVKRYSIEMKP [ECM29] | 1.15 ± 0.049 | 1.38 ± 0.04 | 1.59 ± 0.069 | 2.04 ± 0.044 |
| PHIQKMLSILEIFKKGY [POP6] | 2.42 ± 0.11 | 2.73 ± 0.099 | 3.1 ± 0.091 | 2.54 ± 0.066 |
| TSFEQGEITFDGIGGLT [RPT4] | 3.1 ± 0.085 | 3.18 ± 0.074 | 3.05 ± 0.066 | 3.49 ± 0.059 |
| VQQSEKLRNEVERIQKM [YIL149C/MLP2] | 3.13 ± 0.13 | 3.42 ± 0.2 | 2.86 ± 0.2 | 3.24 ± 0.12 |
| LFKKITNVNPSKNFNVI [YML103C/NUP188] | 2.63 ± 0.048 | 2.37 ± 0.038 | 2.73 ± 0.042 | 2.39 ± 0.036 |
| DLMDDMSDISDLDDLGF [RPN3] | 1.82 ± 0.098 | 1.89 ± 0.081 | 1.57 ± 0.14 | 1.74 ± 0.075 |
| KGDRALLVKLSKRLPLR [BRR2] | 2.47 ± 0.047 | 2.57 ± 0.042 | 2.34 ± 0.094 | 2.57 ± 0.042 |
| QTVRLIKDLQRAINKVL [SIR2] | 2.13 ± 0.057 | 2.03 ± 0.061 | 1.22 ± 0.11 | 2 ± 0.039 |
| ATFLKDDLPYYVNALAD [QCR2] | 2.37 ± 0.047 | 2.21 ± 0.046 | 2.27 ± 0.053 | 2.35 ± 0.032 |
| LLKEKPNALKPLSESLR [RRP6] | 2.71 ± 0.059 | 2.83 ± 0.065 | 2.91 ± 0.077 | 2.94 ± 0.044 |
| QQPNPLHGLTPTAKDVE [GAL11] | 3.17 ± 0.053 | 2.98 ± 0.041 | 3.15 ± 0.06 | 3.07 ± 0.033 |
